Biological target: T1, rProtein A Sepharose FF (Staphylococcus aureus, UniProt P38507 37-327)
T1 construct: the protein ligand is immobilized on agarose beads; also called rProtein A Sepharose 4 FF
Test: microtiter plate column chromatography, Bradford assay; Bound (%)

B1: Bevacizumab Fab fragment (Fab, V domains shown)
VH: EVQLVESGGGLVQPGGSLRLSCAASGYTFTNYGMNWVRQAPGKGLEWVGWINTYTGEPTYAADFKRRFTFSLDTSKSTAYLQMNSLRAEDTAVYYCAKYPHYYGSSHWYFDVWGQGTLVTVSS
VL: DIQMTQSPSSLSASVGDRVTITCSASQDISNYLNWYQQKPGKAPKVLIYFTSSLHSGVPSRFSGSGSGTDFTLTISSLQPEDFATYYCQQYSTVPWTFGQGTKVEIKR
notes: also called Fab fragments
  binding result: no binding

— patent WO2011104307A2 (dated 2011)
